According to publication PMC8683598:

Columns and labels:
[1] = molecular target: FLAG-T. castaneum methoprene-tolerant (T. castaneum); experiment: native MS; purified methoprene-bound complex exchanged into 200 mM ammonium acetate pH 7.4, nano-ESI, Synapt G2Si
[2] = molecular target: FLAG-T. castaneum methoprene-tolerant (T. castaneum); experiment: SEC-MALS; purified complex loaded at ~5 mg/ml, Superdex 200 10/300, 50 mM Tris, 350 mM NaCl, 10 uM methoprene, 2 mM MgCl2, 100 uM TCEP, pH 8.0; peak fractions checked by SDS-PAGE

Work on “His6-Tribolium castaneum taiman (TcTAI) (domain or fragment)” yielded a stoichiometry N [1] of 1 and a stoichiometry N [2] of 1.
